From patent EP4711384A1 (WIO Bioscience Co., Ltd., dated 2026)
Values joined by “and” are separate entries in the source; they are usually repeats but may differ in a detail not shown here. Identical values can stand only once.

T1: human IL-18R1 and IL-18RAP on IL-18 Reporter HEK 293 Cells (human, UniProt Q13478 19-541; O95256 20-599)
T1 sequence (looked up) 1: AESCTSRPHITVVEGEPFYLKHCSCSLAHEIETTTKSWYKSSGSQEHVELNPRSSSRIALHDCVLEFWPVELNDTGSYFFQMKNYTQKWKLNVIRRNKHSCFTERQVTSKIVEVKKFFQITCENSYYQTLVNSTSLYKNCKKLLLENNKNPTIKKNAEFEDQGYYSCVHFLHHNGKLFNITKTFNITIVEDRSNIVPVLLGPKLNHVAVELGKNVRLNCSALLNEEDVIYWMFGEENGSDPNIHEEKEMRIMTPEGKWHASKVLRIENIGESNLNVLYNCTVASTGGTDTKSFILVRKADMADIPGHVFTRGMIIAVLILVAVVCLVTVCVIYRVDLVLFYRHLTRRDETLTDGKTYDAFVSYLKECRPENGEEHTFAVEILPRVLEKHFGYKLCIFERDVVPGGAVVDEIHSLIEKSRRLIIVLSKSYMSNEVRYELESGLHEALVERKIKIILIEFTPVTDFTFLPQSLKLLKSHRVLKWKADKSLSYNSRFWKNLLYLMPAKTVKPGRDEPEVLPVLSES
T1 sequence (looked up) 2: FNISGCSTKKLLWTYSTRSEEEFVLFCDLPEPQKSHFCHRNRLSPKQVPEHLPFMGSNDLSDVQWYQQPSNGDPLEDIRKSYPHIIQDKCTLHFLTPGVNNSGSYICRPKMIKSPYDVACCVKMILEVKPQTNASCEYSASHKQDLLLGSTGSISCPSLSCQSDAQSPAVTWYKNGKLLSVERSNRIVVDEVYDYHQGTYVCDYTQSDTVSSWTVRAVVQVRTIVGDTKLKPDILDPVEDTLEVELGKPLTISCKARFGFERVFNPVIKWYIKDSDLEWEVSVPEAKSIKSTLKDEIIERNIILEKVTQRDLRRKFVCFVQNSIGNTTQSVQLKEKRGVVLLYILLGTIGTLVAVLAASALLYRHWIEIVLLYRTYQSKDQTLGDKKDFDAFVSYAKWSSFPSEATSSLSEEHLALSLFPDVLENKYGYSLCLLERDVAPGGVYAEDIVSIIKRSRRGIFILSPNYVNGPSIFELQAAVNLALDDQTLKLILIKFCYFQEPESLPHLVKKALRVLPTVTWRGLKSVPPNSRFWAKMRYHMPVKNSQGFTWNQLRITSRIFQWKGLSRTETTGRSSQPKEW


The binders below were run against T1, human IL-18R1 and IL-18RAP on IL-18 … (assay: cell-based or functional assay).

| EC50 | Top530nm | Binder |
| --- | --- | --- |
| 28.7 ng/mL | 0.349 | hzWio-02-01-Hm30 (bispecific antibody) EVQLVESGGGLVQPGGSLRLSCAASGTAYDNACMGWFRQAPGKEREGVASIHLRDRTYYADSVKGRFTISRDNSKNTLYLQMNSLRAEDTAVYYCASSNICNALHLQGNTYWGQGTLVTVSSGGGGSEVQLLESGGGLVQPGGSLRLSCAASGYTYGPYCMGWFRQAPGKEREGVAAVGGDARTWYGNSVKGRFTISRDNSKNTLYLQMNSLRAEDTAVYYCAADFDRTVCSDDIYDYTYRGQGTLVTVSSHHHHHH |
| 0.42 ng/mL | 0.821 | hzWio-02-01-Hm28 (bispecific antibody) EVQLVESGGGLVQPGGSLRLSCAASGTAYDNACMGWFRQAPGKEREGVASIHLRDRTYYADSVKGRFTISRDNSKNTLYLQMNSLRAEDTAVYYCASSNICNHLNLQGNTYWGQGTLVTVSSGGGGSEVQLLESGGGLVQPGGSLRLSCAASGYTYGPYCMGWFRQAPGKEREGVAAVGGDARTWYGNSVKGRFTISRDNSKNTLYLQMNSLRAEDTAVYYCAADFDRTVCSDDIYDYTYRGQGTLVTVSSHHHHHH |
| 0.433 ng/mL | 0.773 | hzWio-02-01-Hm27 (bispecific antibody) EVQLVESGGGLVQPGGSLRLSCAASGTAYDNACMGWFRQAPGKEREGVASIHLRDRTYYADSVKGRFTISRDNSKNTLYLQMNSLRAEDTAVYYCASSNICHALNLQGNTYWGQGTLVTVSSGGGGSEVQLLESGGGLVQPGGSLRLSCAASGYTYGPYCMGWFRQAPGKEREGVAAVGGDARTWYGNSVKGRFTISRDNSKNTLYLQMNSLRAEDTAVYYCAADFDRTVCSDDIYDYTYRGQGTLVTVSSHHHHHH |
| 0.67 ng/mL and 1.49 ng/mL |  | hzWio-02-01-Hm29 (bispecific antibody) EVQLVESGGGLVQPGGSLRLSCAASGTAYDNACMGWFRQAPGKEREGVASIHLRDRTYYADSVKGRFTISRDNSKNTLYLQMNSLRAEDTAVYYCASSNICNAHNLQGNTYWGQGTLVTVSSGGGGSEVQLLESGGGLVQPGGSLRLSCAASGYTYGPYCMGWFRQAPGKEREGVAAVGGDARTWYGNSVKGRFTISRDNSKNTLYLQMNSLRAEDTAVYYCAADFDRTVCSDDIYDYTYRGQGTLVTVSSHHHHHH |
| 0.301 ng/mL | 0.764 | hzWio-02-01-Hm26 (bispecific antibody) EVQLVESGGGLVQPGGSLRLSCAASGTAYDNACMGWFRQAPGKEREGVASIHLRDRTYYADSVKGRFTISRDNSKNTLYLQMNSLRAEDTAVYYCASSNHCNALNLQGNTYWGQGTLVTVSSGGGGSEVQLLESGGGLVQPGGSLRLSCAASGYTYGPYCMGWFRQAPGKEREGVAAVGGDARTWYGNSVKGRFTISRDNSKNTLYLQMNSLRAEDTAVYYCAADFDRTVCSDDIYDYTYRGQGTLVTVSSHHHHHH |
| 0.04 ng/mL | 0.738 | hzWio-02-01-Hm25 (bispecific antibody) EVQLVESGGGLVQPGGSLRLSCAASGTAYDNACMGWFRQAPGKEREGVASIHLRDRTYYADSVKGRFTISRDNSKNTLYLQMNSLRAEDTAVYYCASSHICNALNLQGNTYWGQGTLVTVSSGGGGSEVQLLESGGGLVQPGGSLRLSCAASGYTYGPYCMGWFRQAPGKEREGVAAVGGDARTWYGNSVKGRFTISRDNSKNTLYLQMNSLRAEDTAVYYCAADFDRTVCSDDIYDYTYRGQGTLVTVSSHHHHHH |

Continued, binder first:

| Binder | EC50 | Top530nm |
| --- | --- | --- |
| hzWio-02-01-Hm15 (bispecific antibody) EVQLVESGGGLVQPGGSLRLSCAASGTAYDNACMGWFRQAPGKEREGVASIHLRDRHYYADSVKGRFTISRDNSKNTLYLQMNSLRAEDTAVYYCASSNICNALNLQGNTYWGQGTLVTVSSGGGGSEVQLLESGGGLVQPGGSLRLSCAASGYTYGPYCMGWFRQAPGKEREGVAAVGGDARTWYGNSVKGRFTISRDNSKNTLYLQMNSLRAEDTAVYYCAADFDRTVCSDDIYDYTYRGQGTLVTVSSHHHHHH | 1.54 ng/mL | 1.13 |
| hzWio-02-01-Hm18 (bispecific antibody) EVQLVESGGGLVQPGGSLRLSCAASGTAYDNACMGWFRQAPGKEREGVASIHLRDRTYYHDSVKGRFTISRDNSKNTLYLQMNSLRAEDTAVYYCASSNICNALNLQGNTYWGQGTLVTVSSGGGGSEVQLLESGGGLVQPGGSLRLSCAASGYTYGPYCMGWFRQAPGKEREGVAAVGGDARTWYGNSVKGRFTISRDNSKNTLYLQMNSLRAEDTAVYYCAADFDRTVCSDDIYDYTYRGQGTLVTVSSHHHHHH | 0.696 ng/mL | 1.07 |
| hzWio-02-01-Hm16 (bispecific antibody) EVQLVESGGGLVQPGGSLRLSCAASGTAYDNACMGWFRQAPGKEREGVASIHLRDRTHYADSVKGRFTISRDNSKNTLYLQMNSLRAEDTAVYYCASSNICNALNLQGNTYWGQGTLVTVSSGGGGSEVQLLESGGGLVQPGGSLRLSCAASGYTYGPYCMGWFRQAPGKEREGVAAVGGDARTWYGNSVKGRFTISRDNSKNTLYLQMNSLRAEDTAVYYCAADFDRTVCSDDIYDYTYRGQGTLVTVSSHHHHHH | 1.15 ng/mL | 1.11 |
| hzWio-02-01-Hm24 (bispecific antibody) EVQLVESGGGLVQPGGSLRLSCAASGTAYDNACMGWFRQAPGKEREGVASIHLRDRTYYADSVKGRFTISRDNSKNTLYLQMNSLRAEDTAVYYCASHNICNALNLQGNTYWGQGTLVTVSSGGGGSEVQLLESGGGLVQPGGSLRLSCAASGYTYGPYCMGWFRQAPGKEREGVAAVGGDARTWYGNSVKGRFTISRDNSKNTLYLQMNSLRAEDTAVYYCAADFDRTVCSDDIYDYTYRGQGTLVTVSSHHHHHH | 1.97 ng/mL | 0.774 |
| hzWio-02-01-Hm23 (bispecific antibody) EVQLVESGGGLVQPGGSLRLSCAASGTAYDNACMGWFRQAPGKEREGVASIHLRDRTYYADSVKHRFTISRDNSKNTLYLQMNSLRAEDTAVYYCASSNICNALNLQGNTYWGQGTLVTVSSGGGGSEVQLLESGGGLVQPGGSLRLSCAASGYTYGPYCMGWFRQAPGKEREGVAAVGGDARTWYGNSVKGRFTISRDNSKNTLYLQMNSLRAEDTAVYYCAADFDRTVCSDDIYDYTYRGQGTLVTVSSHHHHHH | 0.238 ng/mL | 0.794 |
| hzWio-02-01-Hm20 (bispecific antibody) EVQLVESGGGLVQPGGSLRLSCAASGTAYDNACMGWFRQAPGKEREGVASIHLRDRTYYADHVKGRFTISRDNSKNTLYLQMNSLRAEDTAVYYCASSNICNALNLQGNTYWGQGTLVTVSSGGGGSEVQLLESGGGLVQPGGSLRLSCAASGYTYGPYCMGWFRQAPGKEREGVAAVGGDARTWYGNSVKGRFTISRDNSKNTLYLQMNSLRAEDTAVYYCAADFDRTVCSDDIYDYTYRGQGTLVTVSSHHHHHH | 0.582 ng/mL | 2.75 |
| hzWio-02-01-Hm21 (bispecific antibody) EVQLVESGGGLVQPGGSLRLSCAASGTAYDNACMGWFRQAPGKEREGVASIHLRDRTYYADSHKGRFTISRDNSKNTLYLQMNSLRAEDTAVYYCASSNICNALNLQGNTYWGQGTLVTVSSGGGGSEVQLLESGGGLVQPGGSLRLSCAASGYTYGPYCMGWFRQAPGKEREGVAAVGGDARTWYGNSVKGRFTISRDNSKNTLYLQMNSLRAEDTAVYYCAADFDRTVCSDDIYDYTYRGQGTLVTVSSHHHHHH | 2.12 ng/mL | 1.12 |
| hzWio-02-01-Hm22 (bispecific antibody) EVQLVESGGGLVQPGGSLRLSCAASGTAYDNACMGWFRQAPGKEREGVASIHLRDRTYYADSVHGRFTISRDNSKNTLYLQMNSLRAEDTAVYYCASSNICNALNLQGNTYWGQGTLVTVSSGGGGSEVQLLESGGGLVQPGGSLRLSCAASGYTYGPYCMGWFRQAPGKEREGVAAVGGDARTWYGNSVKGRFTISRDNSKNTLYLQMNSLRAEDTAVYYCAADFDRTVCSDDIYDYTYRGQGTLVTVSSHHHHHH | 0.182 ng/mL | 0.773 |
| hzWio-02-01-Hm19 (bispecific antibody) EVQLVESGGGLVQPGGSLRLSCAASGTAYDNACMGWFRQAPGKEREGVASIHLRDRTYYAHSVKGRFTISRDNSKNTLYLQMNSLRAEDTAVYYCASSNICNALNLQGNTYWGQGTLVTVSSGGGGSEVQLLESGGGLVQPGGSLRLSCAASGYTYGPYCMGWFRQAPGKEREGVAAVGGDARTWYGNSVKGRFTISRDNSKNTLYLQMNSLRAEDTAVYYCAADFDRTVCSDDIYDYTYRGQGTLVTVSSHHHHHH | 0.84 ng/mL | 0.738 |
| hzWio-02-01-Hm17 (bispecific antibody) EVQLVESGGGLVQPGGSLRLSCAASGTAYDNACMGWFRQAPGKEREGVASIHLRDRTYHADSVKGRFTISRDNSKNTLYLQMNSLRAEDTAVYYCASSNICNALNLQGNTYWGQGTLVTVSSGGGGSEVQLLESGGGLVQPGGSLRLSCAASGYTYGPYCMGWFRQAPGKEREGVAAVGGDARTWYGNSVKGRFTISRDNSKNTLYLQMNSLRAEDTAVYYCAADFDRTVCSDDIYDYTYRGQGTLVTVSSHHHHHH | 1.47 ng/mL | 1 |
